Experimental data: patent US20240067728A1 (BIO THERA SOLUTIONS, published 2024)
Read-outs that look alike come from different tables or passages of the source.

Key:
CD47-His antigen [1] = target: T1, CD47-His antigen (human, UniProt Q08722 19-139); test: SPR (Biacore), method of Example 5; cell carries an unexplained mark ^
T1 construct: Human CD47 ECD with C-terminal 8xHIS tag, expressed in HEK293F; also called hCD47-His; human CD47-His

[2] = target: T2, human PD-L1 on PD-L1-CHO cells (human, UniProt Q9NZQ7 19-290); test: FACS on PD-L1-CHO cells, PE-labeled anti-human Fc secondary antibody; MFI(Mean) against Con(nM)
T2 construct: whole, on cells; also called CHO cells overexpressing human PD-L1; PD-L1 expressed on the cell surface
T2 sequence (Q9NZQ7 19-290): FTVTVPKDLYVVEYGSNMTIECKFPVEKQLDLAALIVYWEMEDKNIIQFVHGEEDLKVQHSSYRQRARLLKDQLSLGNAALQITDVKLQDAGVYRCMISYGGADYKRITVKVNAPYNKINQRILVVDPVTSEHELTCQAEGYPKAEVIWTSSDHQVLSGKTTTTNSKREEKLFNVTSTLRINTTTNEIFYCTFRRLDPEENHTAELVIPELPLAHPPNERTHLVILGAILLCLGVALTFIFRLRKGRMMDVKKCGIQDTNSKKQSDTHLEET
Protocol: (§1) The binding of the exemplary anti-PD-L1/CD47 bispecific antibodies of the present invention to CHO cells overexpressing human PD-L1 or human CD47 was measured by flow cytometry. Briefly, human PD-L1 or human CD47 cDNA was inserted into an expression vector and transfected into Chinese hamster ovary cancer cells (CHO, Invitrogen), resulting in CHO cells overexpressing human PD-L1 or human CD47 (PD-L1-CHO cells or CD47-CHO cells).

CD47-His antigen [3] = target: T1, CD47-His antigen; test: SPR (Biacore), method of Example 5, 1:1 Binding fit
[4] = target: T3, human CD47 on CD47-CHO cells (human, UniProt Q08722 19-323); test: FACS on CD47-CHO cells, PE-labeled anti-human Fc secondary antibody; MFI(Mean) against Con(nM)
T3 construct: whole, on cells; also called CHO cells overexpressing human CD47; CD47 expressed on the cell surface
Protocol: as §1

[5] = target: T3, human CD47 on CD47-CHO cells; test: as above; remark: listed apart in the source
Protocol: as §1

[6] = target: T4, CD47 on human T lymphocyte leukemia Jurkat cells (human, UniProt Q08722 19-323); test: FACS on Jurkat cells, PE-labeled anti-human Fc secondary antibody; MFI(Mean) against Con(nM)
T4 construct: whole, on cells; also called tumor cells
Protocol: By using the same method as described above, test samples of the exemplary bispecific antibodies and human T lymphocyte leukemia Jurkat cells were prepared.

[7] = target: T5, CD47 on human red blood cells (human, UniProt Q08722 19-323); test: FACS on human red blood cells, PE-labeled anti-human Fc secondary antibody; MFI(Mean) against Con(nM)
T5 construct: whole, on cells; also called RBC

| Kd (CD47-His antigen [1]) [nM] | binding result [2] | Kd (CD47-His antigen [3]) [nM] | EC50 (read off the curve) [4] [nM] | EC50 (read off the curve) [5] [nM] | EC50 (read off the curve) [6] [nM] | EC50 (read off the curve) [7] [nM] | Binder |
| --- | --- | --- | --- | --- | --- | --- | --- |
| 0.361 |  |  |  |  |  |  | 47-R2-89 (antibody, human IgG1, kappa, V domains shown, Anti-CD47 monoclonal antibody, L12-6-VH with light chain R2-89) VH: QVQLQESGPGLVKPSETLSLTCTVSGGSLDNYYWSWIRQPPGKGLEWIGYIYYSGNTNYNPSLKSRVTISVDTSKNQFSLKLSSVTAADTAVYYCARGGRFLERYWGQGTLVTVSS VL: DIQMTQSPSSLSASVGDRVTITCLASQTIGTWLAWYQQKPGKSPQLLIYAASSLQSGVPSRFSGSGSGTDFTLTISSLQPEDVATYYCQQYYSTPYTFGQGTKVDIKR |
| 0.312 |  |  |  |  |  |  | 47-R2-18 (antibody, human IgG1, kappa, V domains shown, Anti-CD47 monoclonal antibody, L12-6-VH with light chain R2-18) VH: QVQLQESGPGLVKPSETLSLTCTVSGGSLDNYYWSWIRQPPGKGLEWIGYIYYSGNTNYNPSLKSRVTISVDTSKNQFSLKLSSVTAADTAVYYCARGGRFLERYWGQGTLVTVSS VL: EIVLTQSPSSVSASVGDRITITCRASQGIGSWLAWYQQKPGKAPSLLIYAASSLQSGVPSRFSGSGSGTDFTLTISSLQTEDVAVYYCQQYFSTPYTFGQGTKVDIKR |
|  | no binding (tested: 10 nM) | 3.29 | ~0.9 | ~1 | ~0.7 | ~3 | 47-R2-4 (antibody, human IgG1, kappa, V domains shown, Anti-CD47 monoclonal antibody, L12-6-VH with light chain R2-4; also called parental anti-CD47 antibody 47-R2-4) VH: QVQLQESGPGLVKPSETLSLTCTVSGGSLDNYYWSWIRQPPGKGLEWIGYIYYSGNTNYNPSLKSRVTISVDTSKNQFSLKLSSVTAADTAVYYCARGGRFLERYWGQGTLVTVSS VL: EIVLTQSPSSLSASVGDRVTITCLASQTIGTWLAWYQQKPGKSPQLLIYAASTLQSGVPSRFSGSGSGTDFTLTISSLQPEDVATYYCQQYYSTPRTFGQGTKVEIKR |
